Assays:
[1] = target: T1, human PD-1 expressed on Jurkat cells (human, UniProt Q15116 25-288); assay: flow cytometry on Jurkat/huPD-1 cells, anti-human Fc AF647 secondary, MFI
T1 construct: whole, on cells; also called huPD-1; Jurkat/huPD-1 clonal cell line
Protocol: The human PD-1 gene was subcloned into the pcDNA3.1 mammalian expression vector and transfected into the Jurkat human T cell line. A clonal cell population expressing high levels of huPD-1 was generated by G418 drug selection and single-cell sorting. This Jurkat/huPD-1 clonal cell line was labeled with FVS520 viability dye (BD Biosciences, 1:2000 dilution) for 15 minutes at room temperature. The labeled cells were then diluted in FACS buffer (2% FBS in PBS), added to V-bottom 96-well plates (50,000 cells per well), and stained with 0-25 nM anti-huPD1 or isotype control antibody on ice for 30 minutes. Cells were washed to remove excess primary antibody, then labeled with Alexa luor 647-conjugated goat anti-human Fc secondary antibody (Jackson Immunoresearch, 1:1600 dilution) on ice for 20 minutes. The labeled cells were then washed with FACS buffer before acquisition on a BD FACSCalibur flow cytometer equipped with the Cytek AMS plate loader system. Data points show the median fluorescence intensity (MFI) on the AF647 channel after gating on live cells. Nonlinear regression methods were used to fit curves to each data set, and error bars represent the standard deviation of duplicate samples.

[2] = target: T1, human PD-1 expressed on Jurkat cells; assay: blocking of biotinylated human PD-L1 binding to Jurkat/huPD-1 cells, flow cytometry, streptavidin-APC MFI
Protocol: The Jurkat/huPD-1 clonal cell line was labeled with FVS520 viability dye (BD Biosciences, 1:2000 dilution) for 15 minutes at room temperature. The labeled cells were then diluted in FACS buffer (2% FBS in PBS), added to V-bottom 96-well plates (50,000 cells per well), and stained with 0-100 nM anti-huPD1 or isotype control antibody on ice for 30 minutes. Cells were washed to remove excess antibody, then labeled with 15 ug/ml His-tag purified, monobiotinylated […] on ice for 30 minutes. Cells were washed again with FACS buffer, then labeled with 0.25 ug/ml APC-conjugated streptavidin on ice for 20 minutes. Cells were washed again with before acquisition on a BD FACSCalibur flow cytometer equipped with the Cytek AMS plate loader system. AB1HU-AB5HU results in this assay are shown in FIG. 3. and show the median fluorescence intensity (MFI) on the APC channel after gating on live cells. Error bars represent the standard deviation of duplicate samples.

[3] = target: T2, human PD-1 extracellular domain (human, UniProt Q15116 25-170); assay: bio-layer interferometry (Octet Red 96), antibody on anti-human Fc biosensor, PD-1 ECD in solution, 1:1 global fit, 30 C
T2 construct: extracellular domain; Soluble analyte in the bio-layer interferometry assay; also called recombinant human PD-1 extracellular domain protein
Protocol: The binding kinetics of selected anti-PD-1 antibodies AB1-AB5 and AB1HU-AB5HU was determined by bio-layer interferometry analysis on a ForteBio Octet Red 96 instrument. First, purified antibodies were produced by protein A chromatography using HEK-293 transiently-transfected antibody supernatants. This assay was performed by immobilizing the purified antibodies to anti-human Fc biosensors. PD-1 binding to and dissociation from the biosensors was then observed at various concentrations of PD-1. Specifically, eight anti-human Fc biosensors were placed into wells containing the same purified antibody for 5 minutes. Biosensors were equilibrated in kinetics buffer (Pall ForteBio) for 1 minute to establish a baseline. Association of PD-1 was observed by placing the biosensors into wells containing various concentrations of human PD-1 extracellular domain for 5 minutes. Dissociation was measured after transfer of the biosensors into kinetics buffer and monitoring the interferometry signals for 15 minutes. All steps of the assay were performed at 30° C. with shaking at 1000 RPM. The on and off rates (kon and koff) and the equilibrium binding constant KD were determined using the software provided by the manufacturer and were fit using a 1:1 binding global fit model comprising several of the concentrations tested.

[4] = target: T1, human PD-1 expressed on Jurkat cells; assay: blocking of biotinylated human PD-L2 binding to Jurkat/huPD-1 cells, flow cytometry, streptavidin-APC MFI
Protocol: The Jurkat/huPD-1 clonal cell line was labeled with FVS520 viability dye (BD Biosciences, 1:2000 dilution) for 15 minutes at room temperature. The labeled cells were then diluted in FACS buffer (2% FBS in PBS), added to V-bottom 96-well plates (50,000 cells per well), and stained with 0-100 nM anti-huPD1 or isotype control antibody on ice for 30 minutes. Cells were washed to remove excess antibody, then labeled with 15 ug/ml His-tag purified, monobiotinylated huPD-L2 on ice for 30 minutes. Cells were washed with FACS buffer, then labeled with 0.25 ug/ml APC-conjugated streptavidin on ice for 20 minutes. Cells were washed again with FACS buffer before acquisition on a FACSCalibur flow cytometer equipped with the Cytek AMS plate loader system. […] Error bars represent the standard deviation of duplicate samples.

[5] = target: T1, human PD-1 expressed on Jurkat cells; assay: flow cytometry on Jurkat/huPD-1 cells, biotinylated PD-L2 detected with streptavidin-APC, MFI

T1 sequence (Q15116 25-288): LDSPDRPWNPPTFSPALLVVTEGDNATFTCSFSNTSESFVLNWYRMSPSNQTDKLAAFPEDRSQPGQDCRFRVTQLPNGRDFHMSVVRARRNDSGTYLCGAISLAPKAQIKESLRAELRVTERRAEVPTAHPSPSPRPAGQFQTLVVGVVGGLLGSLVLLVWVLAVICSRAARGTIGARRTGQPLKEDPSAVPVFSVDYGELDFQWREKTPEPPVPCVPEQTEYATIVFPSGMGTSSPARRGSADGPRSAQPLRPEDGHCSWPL
T2 sequence (Q15116 25-170): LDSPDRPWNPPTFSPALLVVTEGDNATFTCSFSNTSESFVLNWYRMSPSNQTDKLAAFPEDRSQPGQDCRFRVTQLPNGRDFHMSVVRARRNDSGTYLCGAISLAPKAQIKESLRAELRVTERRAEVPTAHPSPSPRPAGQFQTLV

B1: AB2HU (antibody, human IgG1, kappa, V domains shown)
VH: QEQLLESGGGLVQPGGSLRLSCTASGFSFSSYWMCWVRQAPGKGLEWIGCITTGSGSTYYASWAKRRFTISKDNSKNTVTLQMNSLRAEDTAVYYCTRAFDLWGQGTLVTVSS
VL: DIQMTQSPSSLSASVGDRVTITCQASQSIYSYLNWYQQKPGKAPKLLIYGASNLASGVPSRFSGSGSGTDFTLTISSLQPEDFATYYCQSSWLSGAVGNAFGGGTKVEIKR
notes: Humanized, human gamma-1 / kappa constant domains as in the full-length entries; also called humanized form of antibody AB2
Question: Which results are given for B1?
Answer: EC50 (read off the curve) [1]: ~0.6 nM; IC50 (read off the curve) [2]: ~2 nM; Kd [3]: 17 nM; koff [3]: 0.0015 s⁻¹; kon [3]: 89000 M⁻¹ s⁻¹; IC50 (read off the curve) [4]: ~0.2 nM

B2: AB3HU (antibody, human IgG1, kappa, V domains shown)
VH: QEQVKETGGGLVQPGGSLRLSCAASGFTISSYGVSWVRQAPGKGLEWVALIFPGIGFKDYASWVNGRFTLSSDNAQNTVELQMNSLRAEDTAVYYCARDLDLWGQGTLVTVSS
VL: DIQMTQSPSSLSASVGDRVTITCQSSPSVYSNYLSWYQQKPGKVPKLLIYYASTLASGVPSRFSGSGSGTDFTLTISSLQPEDVATYYCAGGYSSSTRAFGGGTKVEIKR
notes: Humanized, human gamma-1 / kappa constant domains as in the full-length entries; also called humanized form of antibody AB3
Question: Which “EC50 (read off the curve)” value [1] does the source give for B2 here?
Answer: ~1 nM

Question: What about the “IC50 (read off the curve)” value [2] of the same binder?
Answer: ~1 nM

Question: And the Kd [3]?
Answer: 1.1 nM

Question: What about the koff [3] of the same binder?
Answer: 0.00014 s⁻¹

Question: And the kon [3]?
Answer: 130000 M⁻¹ s⁻¹

Question: And the “IC50 (read off the curve)” value [4]?
Answer: ~1 nM

B3: AB1HU (antibody, human IgG1, kappa, V domains shown)
VH: EVQLVESGGGLVQPGGSLRLSCAASGFDFSSGYWICWVRQAPGKGLELIACIYAGTSGSTSYASWARGRFTISETSKNTVTLQMNSLRAEDSAVYYCARNLYTYNSLWGQGTLVTVSS
VL: DIQMTQSPSTLSASVGDRVTITCQSSQSVYDNNWLAWYQQKPGKAPKLLIYTVSTLASGVPSRFSGSGSGTEFTLTISSLQPDDFATYYCQGTYYSSGWNFAFGGGTKVEIKR
notes: Humanized, human gamma-1 / kappa constant domains as in the full-length entries; also called humanized form of antibody AB1
Question: Which “IC50 (read off the curve)” value [2] does the source give for B3 here?
Answer: ~4 nM

Question: And the Kd [3]?
Answer: 16 nM

Question: And the koff [3]?
Answer: 0.0002 s⁻¹

Question: What about the kon [3] of the same binder?
Answer: 12000 M⁻¹ s⁻¹

B4: recombinant human PD-L2 (ligand, UniProt Q9BQ51 20-220, looked up)
ligand: LFTVTVPKELYIIEHGSNVTLECNFDTGSHVNLGAITASLQKVENDTSPHRERATLLEEQLPLGKASFHIPQVQVRDEGQYQCIIIYGVAWDYKYLTLKVKASYRKINTHILKVPETDEVELTCQATGYPLAEVSWPNVSVPANTSHSRTPEGLYQVTSVLRLKPPPGRNFSCVFWNTHVRELTLASIDLQSQMEPRTHPT
modifications: monobiotinylated, His-tag purified
notes: recombinant soluble protein; also called huPD-L2
Question: Does B4 bind [5]?
Answer: binds

B5: AB1 (antibody, human IgG1, kappa, V domains shown)
VH: QSLEESGGDLVKPEGSLTLTCKASGFDFSSGYWICWVRQAPGKGLELIACIYAGTSGSTSYASWARGRFTISETSSTTVTLQMTSLTAADSATYFCARNLYTYNSLWGQGTLVTVSS
VL: QVLTQTASSVSAAVGGTVTISCQSSQSVYDNNWLAWYQQKPGQPPMLLIYTVSTLASGVSSRFKGSGSGTQFTLTISGVQCDDAATYYCQGTYYSSGWNFAFGGGTEVVVKR
notes: Rabbit variable domains on human IgG1 / human kappa constant domains; purified by protein A from HEK-293 supernatant; also called AB1 chimeric; rabbit/human chimeric anti-PD-1 antibody AB1
Question: For B5, which Kd [3] is on record?
Answer: 4.8 nM

Question: What about the koff [3] of the same binder?
Answer: 0.00016 s⁻¹

Question: And the kon [3]?
Answer: 36000 M⁻¹ s⁻¹

B6: AB3 (antibody, human IgG1, kappa, V domains shown)
VH: QEQVKETGGGLVQPGGSLTLSCKASGFTISSYGVSWVRQAPGKGLEWIALIFPGIGFKDYASWVNGRFTLSSDNAQNTVELQMNSLTAADTAAYFCARDLDLWGQGTLVTVSS
VL: QVLTQTPSPVSAAVGGTVSISCQSSPSVYSNYLSWFQQKPGQPPKLLIYYASTLASGVPSRFKGSGSGTQFTLTISDVQCDDAATYYCAGGYSSSTRAFGGGTEVVVKR
notes: Rabbit variable domains on human IgG1 / human kappa constant domains; also called AB3 chimeric
Question: Which Kd [3] does the source give for B6 here?
Answer: 0.9 nM

Question: What about the koff [3] of the same binder?
Answer: 0.00012 s⁻¹

Question: What about the kon [3] of the same binder?
Answer: 130000 M⁻¹ s⁻¹

B7: AB4 (antibody, human IgG1, kappa, V domains shown)
VH: QSLEESGGRLVTPGTPLTLTCTVSGFSLSSYAMSWVRQAPGKGLEYIGYIGDTTGIAYASWANGRFTISKTSTTVDLKITSPTTGDTATYFCARGWSYLDIWGQGTLVTVSS
VL: ALVMTQTPSSVSAAVGGTVTINCQASQNIYSNLAWYQQKPGQPPSLLIYQASTLASGVSSRFSGSGYGTEFTLTISDLECADAATYYCQGGYYSAALNTFGGGTEVVVKR
notes: Rabbit variable domains on human IgG1 / human kappa constant domains; also called AB4 chimeric
Question: What does the source list for B7?
Answer: Kd [3]: 9.2 nM; koff [3]: 0.001 s⁻¹; kon [3]: 110000 M⁻¹ s⁻¹

B8: AB4HU (antibody, human IgG1, kappa, V domains shown)
VH: EVQLVESGGGLVQPGGSLRLSCTASGFSLSSYAMSWVRQAPGKGLEYIGYIGDTTGIAYASWANGRFTISKDNTKNTVDLQMNSLRAEDTAVYYCARGWSYLDIWGQGTLVTVSS
VL: ALVMTQSPSSLSASVGDRVTITCQASQNIYSNLAWYQQKPGKVPKLLIYQASTLASGVPSRFSGSGYGTDFTLTISSLQPEDVATYYCQGGYYSAALNTFGGGTKVEIKR
notes: Humanized, human gamma-1 / kappa constant domains as in the full-length entries; also called humanized form of antibody AB4
Question: With B8 as the binder, how does the Kd [3] read?
Answer: 4.3 nM

Question: What about the koff [3] of the same binder?
Answer: 0.00038 s⁻¹

Question: And the kon [3]?
Answer: 87000 M⁻¹ s⁻¹

B9: AB5 (antibody, human IgG1, kappa, V domains shown)
VH: QEQLEESGGDLVKPEGSLTLTCTASGFSFSSSHWICWVRQAPGKGLEWIACIYTGSIDVFYCASWAKGRFTISKPSSTTVTLQVPSLTAADTATYFCARAANTDTTYFNLWGPGTLVTVSS
VL: AYDMTQTPSSVSAAVGGTVTINCQASQSINNQLSWYQQKPGQPPKLLIYGASTLASGVPSRFTGSGSGTEFTLTISGVQCDDAATYYCHVHYCSGGSCFWAFGGGTEVVVKR
notes: Rabbit variable domains on human IgG1 / human kappa constant domains; also called AB5 chimeric
Question: How did the Kd [3] turn out when B9 was run?
Answer: 3.3 nM

Question: What about the koff [3] of the same binder?
Answer: 0.00026 s⁻¹

Question: And the kon [3]?
Answer: 78000 M⁻¹ s⁻¹

B10: AB5HU (antibody, human IgG1, kappa, V domains shown)
VH: EVQLLESGGGLVQPGGSLRLSCAASGFTFSSSHWICWVRQAPGKGLEWIACIYTGSIDVFYYASWAKGRFTISRDNSKNTLYLQMNSLRAEDTAVYYCARAANTDTTYFNLWGQGTLVTVSS
VL: AYDMTQSPSSLSASVGDRVTINCQASQSINNQLSWYQQKPGKVPKLLIYGASTLASGVPSRFTGSGSGTDFTLTISSLQPEDVATYYCHVHYCSGGSCFWAFGGGTKVEIKR
notes: Humanized, human gamma-1 / kappa constant domains as in the full-length entries; also called humanized form of antibody AB5; ABSHU [sic]
Question: For B10, which Kd [3] is on record?
Answer: 6.6 nM

Question: What about the koff [3] of the same binder?
Answer: 0.0004 s⁻¹

Question: What about the kon [3] of the same binder?
Answer: 61000 M⁻¹ s⁻¹

B11: AB2 (antibody, human IgG1, kappa, V domains shown)
VH: QEQLVESGGGLVQPEGSLTLTCTASGFSFSSYWMCWVRQAPGKGLEWIGCITTGSGSTYYASWAKRRFTISKTSSTTVTLQMTSLTAADTATYFCTRAFDLWGPGTLVTVSS
VL: DVVMTQTPASVSAVVGGTVTIKCQASQSIYSYLNWYQQKPGQPPKLLIYGASNLASGVSSRFKGSGSGTEFTLTISDLECADAATYYCQCSWLSGAVGNAFGGGTEVVVKR
notes: Rabbit variable domains on human IgG1 / human kappa constant domains; also called AB2 chimeric
Question: What does the source list for B11?
Answer: Kd [3]: 86 nM; koff [3]: 0.0057 s⁻¹; kon [3]: 67000 M⁻¹ s⁻¹

From patent US20200157219A1 (SYSTIMMUNE, published 2020)
